Assay results: patent US20190367620A1 (Merck KGaA, published 2019)
Substitutions are numbered along the chain they refer to.

Assays:
[1] = biological target: FGFR1 on NCI-H520 cells (human, UniProt P11362 22-822); test: cell-based or functional assay
[2] = biological target: T1, FGFR1 D2 point mutant V96A (human, UniProt P11362 22-254); test: SPR; free energy change relative to wild-type D2
T1 chain: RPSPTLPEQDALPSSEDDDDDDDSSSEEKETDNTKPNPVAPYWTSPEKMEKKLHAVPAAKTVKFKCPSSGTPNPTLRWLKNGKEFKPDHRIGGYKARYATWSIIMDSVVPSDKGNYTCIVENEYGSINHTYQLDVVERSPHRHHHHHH
Experimental: (§1) Binding affinities of anti-FGFR1 antibodies to FGFR1 were measured by Surface Plasmon Resonance (SPR) using a GE Healthcare BIAcore 4000 instrument as follows. Goat anti-human Fc antibody (Jackson ImmunoResearch Laboratories #109-005-098) was first immobilized on BIAcore carboxymethylated dextran CM5 chip using direct coupling to free amino groups following the procedure described by the manufacturer. Antibodies were then captured on the CM5 biosensor chip to achieve approximately 200 response units (RU). Binding measurements were performed using the running HBS-EP+ buffer. A 2-fold dilution series of His-tagged FGFR1 proteins were injected at a flow rate of 30 μl/min at 25° C. Association rates (kₒₙ, per mol/s) and dissociation rates (koff, per s) were calculated using a simple 1:1 Langmuir binding model (Biacore 4000 Evaluation Software). The equilibrium dissociation constant (KD, mol) was calculated as the ratio of koff/kₒₙ.
(§2) To obtain a finer, residue-level mapping of the epitope and to complement the HD exchange data, molecular modelling and manual inspection of the crystal structure of FGFR1 [(Beenken et al. 2012); PDB record 3OJV] was used to select solvent exposed residues within and around the epitope identified by HD exchange. The selected residues were mutated either to alanine (large to small) or to glycine if the selected residue was alanine. In total 35 point mutants were designed, expressed and purified in HEK cells, and tested for binding to mAb #A08 using surface plasmon resonance as described in Example 1.8. The affinity of the antibody for wild-type and each mutant was determined and used to calculate the contribution of each epitope residue to the binding energy.
(§3) Variant were compared to wild-type D2. The change in the Gibbs free energy of binding of mutant relative to the wild-type D2 construct (ΔΔGₘᵤₜ) was derived from the ratio of the wild-type and mutant KD.

[3] = biological target: T2, FGFR1 D2 point mutant A59G (human, UniProt P11362 22-254); test: SPR; free energy change relative to wild-type D2
T2 chain: T1 chain with A59G, A96V
Experimental: as §1, §2, §3

[4] = biological target: T3, FGFR1 D2 point mutant G93A (human, UniProt P11362 22-254); test: SPR; free energy change relative to wild-type D2
T3 chain: T1 chain with G93A, A96V
Experimental: as §1, §2, §3

[5] = biological target: T4, FGFR1 D2 point mutant K52A (human, UniProt P11362 22-254); test: SPR; free energy change relative to wild-type D2
T4 chain: T1 chain with K52A, A96V
Experimental: as §1, §2, §3

[6] = biological target: T5, FGFR1 D2 point mutant P87A (human, UniProt P11362 22-254); test: SPR; free energy change relative to wild-type D2
T5 chain: T1 chain with P87A, A96V
Experimental: as §1, §2, §3

[7] = biological target: T6, FGFR1 D2 point mutant I104A (human, UniProt P11362 22-254); test: SPR; free energy change relative to wild-type D2
T6 chain: T1 chain with A96V, I104A
Experimental: as §1, §2, §3

[8] = biological target: T7, FGFR1 D2 point mutant K48A (human, UniProt P11362 22-254); test: SPR; free energy change relative to wild-type D2
T7 chain: T1 chain with K48A, A96V
Experimental: as §1, §2, §3

[9] = biological target: T8, FGFR1 D2 point mutant H89A (human, UniProt P11362 22-254); test: SPR; free energy change relative to wild-type D2
T8 chain: T1 chain with H89A, A96V
Experimental: as §1, §2, §3

[10] = biological target: T9, human FGFR1b-IIIb extracellular domain with a HIS tag (human); test: ELISA, antibody titrated on huFGFR1b-IIIb, O.D. 450 nm [panel huFGFR1b-IIIb]
T9 construct: also called huFGFR1b-IIIb; hFGFR1b-IIIb
T9 chain: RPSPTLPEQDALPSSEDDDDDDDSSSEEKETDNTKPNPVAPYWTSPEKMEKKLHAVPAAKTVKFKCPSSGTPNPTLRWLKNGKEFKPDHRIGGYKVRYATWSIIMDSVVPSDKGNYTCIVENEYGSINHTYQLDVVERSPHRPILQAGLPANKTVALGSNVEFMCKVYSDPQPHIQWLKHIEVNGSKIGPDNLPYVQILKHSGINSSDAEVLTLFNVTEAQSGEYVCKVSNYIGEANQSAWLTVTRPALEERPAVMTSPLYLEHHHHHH

Chain of FGFR1 on NCI-H520 cells (P11362 22-822): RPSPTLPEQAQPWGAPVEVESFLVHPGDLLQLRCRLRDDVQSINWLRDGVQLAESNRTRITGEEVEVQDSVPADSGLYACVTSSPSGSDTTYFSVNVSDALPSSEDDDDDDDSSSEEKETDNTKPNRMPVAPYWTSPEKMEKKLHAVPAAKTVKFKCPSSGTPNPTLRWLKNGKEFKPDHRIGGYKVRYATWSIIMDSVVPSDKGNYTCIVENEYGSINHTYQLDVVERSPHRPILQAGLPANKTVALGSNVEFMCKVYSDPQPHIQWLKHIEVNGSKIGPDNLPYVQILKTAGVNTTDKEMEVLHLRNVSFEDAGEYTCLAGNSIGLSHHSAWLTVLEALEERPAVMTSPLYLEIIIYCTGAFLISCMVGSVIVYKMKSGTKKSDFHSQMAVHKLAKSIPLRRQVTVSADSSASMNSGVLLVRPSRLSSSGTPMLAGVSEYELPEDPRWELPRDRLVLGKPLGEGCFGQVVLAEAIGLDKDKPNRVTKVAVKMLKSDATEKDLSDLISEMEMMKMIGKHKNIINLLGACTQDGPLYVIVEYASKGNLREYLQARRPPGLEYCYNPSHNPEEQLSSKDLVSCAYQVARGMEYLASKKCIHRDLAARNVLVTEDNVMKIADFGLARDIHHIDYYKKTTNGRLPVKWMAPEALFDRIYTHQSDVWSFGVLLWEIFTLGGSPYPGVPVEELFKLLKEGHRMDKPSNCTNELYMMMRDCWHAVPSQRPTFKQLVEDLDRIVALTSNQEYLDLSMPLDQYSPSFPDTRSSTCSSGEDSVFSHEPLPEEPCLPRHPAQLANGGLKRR

B1: mAb #A08 (antibody, V domains shown)
VH: EVQLQESGPGLVKPSGTLSLTCAVSGGSISSNNWWSWVRQPPGKGLEWIGEIYHSGSTSYNPSLKSRVTISVDKSKNQFSLKLNSVTAADTAVYYCARGTDWFDPWGQGTLVTVSS
VL: QAVLTQPPSVSVAPGQTARITCGGNNIGSESVHWYQQKPGQAPVLVVYDDSDRPSGIPERFSGSNSGNTATLTISRVEAGDEADYYCQVWDSTSDHRVFGGGTKLTVL
notes: Only variable domains are tied to the name mAb #A08 (hit); also called #A08 hit; mAb #08
[1]
  IC50, inhibition of P-FGFR1 in NCI-H520 cells, FGF1 stimulated: 4 nM
  IC50, inhibition of P-FGFR1 in NCI-H520 cells, FGF2 stimulated: 0.2 nM
  IC50, inhibition of P-FGFR1 in NCI-H520 cells, non-stimulated (hashtag: estimated IC50, poor fit): ~1000 nM
[2]
  ΔΔGmut: -0.02 kcal/mol
[3]
  ΔΔGmut: 1.78 kcal/mol
[4]
  ΔΔGmut: 0.29 kcal/mol
[5]
  ΔΔGmut: 0.11 kcal/mol
[6]
  ΔΔGmut: 0.08 kcal/mol
[7]
  ΔΔGmut: 0.93 kcal/mol
[8]
  ΔΔGmut: -0.46 kcal/mol
[9]
  ΔΔGmut: -0.02 kcal/mol
[10]
  EC50 (read off the curve): ~0.03 nM
